# Biological target: Replication protein A (RPA heterotrimer) (human) (UniProt P27694+P15927+P35244)
# Test: competition
# Chain of Replication protein A (RPA heterotrimer) (human) (P27694 whole entry, chain 1 of 3): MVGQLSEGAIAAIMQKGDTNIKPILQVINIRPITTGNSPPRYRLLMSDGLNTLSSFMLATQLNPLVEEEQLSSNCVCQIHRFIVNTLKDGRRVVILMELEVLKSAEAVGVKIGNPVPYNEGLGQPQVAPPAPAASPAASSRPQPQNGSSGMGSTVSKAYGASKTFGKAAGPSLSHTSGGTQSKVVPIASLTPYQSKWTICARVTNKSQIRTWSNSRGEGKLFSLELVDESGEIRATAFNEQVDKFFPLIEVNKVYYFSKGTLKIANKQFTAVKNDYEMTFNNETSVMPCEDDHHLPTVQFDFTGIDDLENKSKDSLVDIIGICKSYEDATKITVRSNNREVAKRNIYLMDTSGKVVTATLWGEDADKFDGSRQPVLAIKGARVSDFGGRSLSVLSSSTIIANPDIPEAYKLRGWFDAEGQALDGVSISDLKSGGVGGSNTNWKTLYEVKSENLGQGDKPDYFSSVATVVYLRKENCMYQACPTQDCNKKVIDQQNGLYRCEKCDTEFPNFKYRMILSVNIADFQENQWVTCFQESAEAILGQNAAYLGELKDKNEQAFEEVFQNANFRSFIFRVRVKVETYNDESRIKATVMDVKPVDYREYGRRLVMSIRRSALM
# Chain of Replication protein A (RPA heterotrimer) (human) (P15927 whole entry, chain 2 of 3): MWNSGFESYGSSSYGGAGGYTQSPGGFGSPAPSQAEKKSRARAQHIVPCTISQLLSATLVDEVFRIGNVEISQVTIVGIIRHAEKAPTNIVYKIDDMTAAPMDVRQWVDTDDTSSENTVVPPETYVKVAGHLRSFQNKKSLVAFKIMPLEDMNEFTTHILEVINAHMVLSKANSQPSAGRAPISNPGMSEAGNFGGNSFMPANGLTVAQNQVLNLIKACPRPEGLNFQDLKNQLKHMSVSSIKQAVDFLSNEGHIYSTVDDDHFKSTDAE
# Chain of Replication protein A (RPA heterotrimer) (human) (P35244 whole entry, chain 3 of 3): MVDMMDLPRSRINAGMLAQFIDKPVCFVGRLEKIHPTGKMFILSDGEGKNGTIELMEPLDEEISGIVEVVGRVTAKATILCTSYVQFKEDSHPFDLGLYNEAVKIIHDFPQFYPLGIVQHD
substance,measurement,setting,value
pHSG299 supercoiled plasmid,binding signal,scale: fold lower affinity than RNA 501,500
same,binding signal,scale: fold lower affinity than ssDNA 211,33000

# — doi:10.1101/2020.02.11.943977
